Test results published in US8906844B2 (SYNTONIX PHARMACEUTICALS, dated 2014).
Positions of bridges follow the written chain, without caps; N, C: chain ends. Non-standard residues stand in square brackets, D forms with d. No end group written: not given here. Pen = CC(C)(S)[C@H](N)C(=O)O; NMeA = CN[C@@H](C)C(=O)O; Sar = CNCC(=O)O

How the values were obtained:
[1] = biological target: T1, soluble human FcRn (shFcRn) (human, UniProt P55899 24-297; P61769 21-119, biotinylated with Sulfo-NHS-LC-Biotin in the ELISA; amine-coupled to a CM5 chip in SPR); experiment: SPR, pH 6
T1 construct: also called biotinylated shFcRn
Method: (§1) The following steps were performed to cross-link soluble human or cynomolgus FcRn to the dextran surface of a CM5 sensor chip (Biacore AB, Uppsala, Sweden) by an amine coupling reaction involving 1-ethyl-(3-dimethylaminopropyl)-carbodiimide hydrochloride (EDC) (Biacore AB, Uppsala, Sweden) and N-hydroxysuccinimide (NHS) (Biacore AB, Uppsala, Sweden) as recommended by Biacore (BIAapplications Handbook, version AB, section 4.2, Biacore AB, Uppsala, Sweden). The FcRn protein was diluted in 50 mM sodium acetate, pH 4.5 (Biacore AB, Uppsala, Sweden) to a concentration of 10 to 30 µg/ml and used to coat one flow cell on the sensor chip. Residual sites on the FcRn flow cell were blocked with 1 M ethanolamine hydrochloride pH 8.5 (Biacore AB, Uppsala, Sweden). A control flow cell was blocked with ethanolamine for reference subtraction. For analysis of the monomeric peptides, FcRn was coated to a final density of 4000-5000 response units (RU). For analysis of the peptide dimers, FcRn was coated to a density of 2000-2500 RU. All SPR measurements were performed using a BIACORE 3000 Instrument (Biacore AB Uppsala, Sweden). For measurements done at either pH 6 or pH 7.4, experiments were performed in 50 mM phosphate, 100 mM sodium chloride, 0.01% surfactant P20 (Biacore AB, Uppsala, Sweden).
(§2) A. Representative Procedure for the Determination of Binding Constant of Monomeric Peptides Ten 2-fold dilutions of the peptide were injected over the FcRn-CM5 chip at a rate of 20 µl/min for 2 min. The peptide was dissociated from the chip for 2.5 minutes with buffer. Any remaining peptide was removed from the chip with a 30 second injection of HBS-P buffer (Biacore AB, Uppsala, Sweden) at a rate of 30 µl/min. Sensorgrams were generated and analyzed using BiaEval software version 3.1 (Biacore AB, Uppsala, Sweden). The equilibrium RU observed for each injection was plotted against concentration. The equilibrium K_D values were derived by analysis of the plots using the steady state affinity model included in the BiaEval software.

[2] = biological target: T1, soluble human FcRn (shFcRn); experiment: competition ELISA vs human IgG
Method: The wells were coated with 100 μl/well of 1 μg/ml biotinylated-shFcRn in Buffer A. The plate was sealed and incubated at 37° C. for 2 hours. Afterwards, the plate was washed with 200 μl/well of Buffer B (Buffer B: 100 mM MES pH 6, 150 mM NaCl, 0.5% BSA IgG-free (Jackson ImmunoResearch, West Grove, Pa.), 0.05% Tween-20). […] To allow for mixing, the plate was rocked for 2 minutes, sealed and incubated at 37° C. for 2 hours. […] The plate was covered, incubated for 30 minutes at room temperature and washed 4 times with 200 μl/well of ice-cold buffer B. SureBlue TMB substrate solution (100 μl/well, KPL, Gaithersburg, Md.) was added and the plate was allowed to incubate at room temperature until color developed, which took 5 to 10 minutes. Once color developed, 100 μl/well of TMB stop solution (KPL, Gaithersburg, Md.) was added and the absorbance was measured at 450 nm.

[3] = biological target: T1, soluble human FcRn (shFcRn); experiment: SPR, pH 7.4
Method: as §1, §2

Row | Binder | Kd [1] [µM] | IC50 [2] [µM] | Kd [3] [µM]
1 | QRFXTGHFXXLYPCNGP (Pen4; D-Phe9; D-Pro10; disulfide; C-terminal amide) [Peptide No. 150] | 0.72 | 5.9 | –
2 | QRFXTGHFXGLYPCNGP (Pen4; D-Ile9; disulfide; C-terminal amide) [Peptide No. 51] | 2.6 | 9.4 | –
3 | QRFVTGHFGXLYPANGP (D-Pro10; unbridged; C-terminal amide) [Peptide No. 157] | 16 | 195 | –
4 | QRFXTGHFGGXYPCNGP (Pen4; NMeLeu11; disulfide; C-terminal amide) [Peptide No. 113] | 0.086 | 1.6 | –
5 | QRFXTXHFGGLYPCNGP (Pen4; Sar6; disulfide; C-terminal amide) [Peptide No. 108] | 88 | > 125 | –
6 | QRFXTGHFGXLYPCNGP (Pen4; D-His10; disulfide; C-terminal amide) [Peptide No. 42] | 2 | – | 20
7 | QRFXTGHFXGXYPCNGP (Pen4; D-Ala9; NMeLeu11; disulfide; C-terminal amide) [Peptide No. 154] | 0.23 | 3.2 | –
8 | QRFCTGHFXGLYPCNGP (D-Ala9; disulfide; C-terminal amide) [Peptide No. 22] | – | 48 | 137
9 | QRFXTGHFXGLYPCNGP (Pen4; D-Phe9; disulfide; C-terminal amide) [Peptide No. 52] | 0.51 | 2.8 | –
10 | RFXTGHFGGXYPCNGP (Pen3; NMeLeu10; disulfide; C-terminal amide) [Peptide No. 146] | 0.059 | 2.1 | 0.28
11 | RFXTGHFXXYPC (Pen3; X8 = 3(R)-amino-2-oxo-1-azepine acetic acid; NMeLeu9; disulfide; C-terminal amide) [Peptide No. 239] | 0.044 | 0.62 | –
12 | QRFXTGHFXGXYPCNGP (Pen4; D-Phe9; NMeLeu11; disulfide; C-terminal amide) [Peptide No. 153] | 0.24 | 1.3 | –
13 | RF[Pen]TGHFG[Sar]YPCNGP-NH2 (disulfide 3-12; N-terminus assumed; SMILES C[C@@H](O)[C@@H]1NC(=O)[C@@H](NC(=O)[C@H](Cc2ccccc2)NC(=O)[C@@H](N)CCCNC(=N)N)C(C)(C)SSC[C@@H](C(=O)N[C@@H](CC(N)=O)C(=O)NCC(=O)N2CCC[C@H]2C(N)=O)NC(=O)[C@@H]2CCCN2C(=O)[C@H](Cc2ccc(O)cc2)NC(=O)CN(C)C(=O)CNC(=O)[C@H](Cc2ccccc2)NC(=O)[C@H](Cc2c[nH]cn2)NC(=O)CNC1=O, printed RF-Pen-TGHFG-Sar-YPCNGP (no Leu after Sar)) [Peptide No. 147] | 0.058 | 1 | 0.35
14 | QRFXTGHFXGLYPCNGP (Pen4; D-Pro9; disulfide; C-terminal amide) [Peptide No. 48] | 0.79 | 5 | 21

More lines, now with the values ahead:

Row | Kd [1] [µM] | IC50 [2] [µM] | Kd [3] [µM] | Binder
15 | 18 | 169 | – | QRFC[NMeA]GHFGGLYPCNGP-NH2 (disulfide 4-14; N-terminus assumed; SMILES CC(C)C[C@@H]1NC(=O)CNC(=O)CNC(=O)[C@H](Cc2ccccc2)NC(=O)[C@H](Cc2c[nH]cn2)NC(=O)CNC(=O)[C@H](C)N(C)C(=O)[C@@H](NC(=O)[C@H](Cc2ccccc2)NC(=O)[C@H](CCCNC(=N)N)NC(=O)[C@@H](N)CCC(N)=O)CSSC[C@@H](C(=O)N[C@@H](CC(N)=O)C(=O)NCC(=O)N2CCC[C@H]2C(N)=O)NC(=O)[C@@H]2CCCN2C(=O)[C@H](Cc2ccc(O)cc2)NC1=O) [Peptide No. 196]
16 | 4.2 | 49 | – | QRFVTGHFGXWYPINGP (D-Pro10; unbridged; C-terminal amide) [Peptide No. 190]
17 | 1 | 5.5 | – | QRF[Pen][NMeA]GHFGGLYPCNGP-NH2 (disulfide 4-14; N-terminus assumed; SMILES CC(C)C[C@@H]1NC(=O)CNC(=O)CNC(=O)[C@H](Cc2ccccc2)NC(=O)[C@H](Cc2c[nH]cn2)NC(=O)CNC(=O)[C@H](C)N(C)C(=O)[C@@H](NC(=O)[C@H](Cc2ccccc2)NC(=O)[C@H](CCCNC(=N)N)NC(=O)[C@@H](N)CCC(N)=O)C(C)(C)SSC[C@@H](C(=O)N[C@@H](CC(N)=O)C(=O)NCC(=O)N2CCC[C@H]2C(N)=O)NC(=O)[C@@H]2CCCN2C(=O)[C@H](Cc2ccc(O)cc2)NC1=O) [Peptide No. 213]
18 | 3.3 | 21 | – | QRFXTGHFXXLYPCNGP (Pen4; D-Pro9; D-Pro10; disulfide; C-terminal amide) [Peptide No. 152]
19 | 18.3 | 39 | – | QRF[Pen]TGHF[dF]GPYPCNGP-NH2 (disulfide 4-14; N-terminus assumed; SMILES C[C@@H](O)[C@@H]1NC(=O)[C@@H](NC(=O)[C@H](Cc2ccccc2)NC(=O)[C@H](CCCNC(=N)N)NC(=O)[C@@H](N)CCC(N)=O)C(C)(C)SSC[C@@H](C(=O)N[C@@H](CC(N)=O)C(=O)NCC(=O)N2CCC[C@H]2C(N)=O)NC(=O)[C@@H]2CCCN2C(=O)[C@H](Cc2ccc(O)cc2)NC(=O)[C@@H]2CCCN2C(=O)CNC(=O)[C@@H](Cc2ccccc2)NC(=O)[C@H](Cc2ccccc2)NC(=O)[C@H](Cc2c[nH]cn2)NC(=O)CNC1=O) [Peptide No. 155]
20 | 2.2 | 18 | 41 | QRFXTGHFGXLYPCNGP (Pen4; D-Ile10; disulfide; C-terminal amide) [Peptide No. 43]
21 | 0.41 | 3.6 | – | QRFXTGHFXGLYPCNGP (Pen4; D-His9; disulfide; C-terminal amide) [Peptide No. 50]
22 | – | – | 184 | QRFCTGHFGXLYPCNGP (D-Ala10; disulfide; C-terminal amide) [Peptide No. 23]
23 | 0.068 | 1 | – | QRFXTGHFGXWYPCNGP (Pen4; Sar10; disulfide; C-terminal amide) [Peptide No. 238]
24 | 0.58 | – | 4.9 | QRFXTGHFXGLYPCNGP (Pen4; D-Asp9; disulfide; C-terminal amide) [Peptide No. 47]
25 | 3.6 | 60 | – | RFVTGHFG[dP]WYPA-NH2 (N-terminus assumed; SMILES CC(C)[C@H](NC(=O)[C@H](Cc1ccccc1)NC(=O)[C@@H](N)CCCNC(=N)N)C(=O)N[C@H](C(=O)NCC(=O)N[C@@H](Cc1c[nH]cn1)C(=O)N[C@@H](Cc1ccccc1)C(=O)NCC(=O)N1CCC[C@@H]1C(=O)N[C@@H](Cc1c[nH]c2ccccc12)C(=O)N[C@@H](Cc1ccc(O)cc1)C(=O)N1CCC[C@H]1C(=O)N[C@@H](C)C(N)=O)[C@@H](C)O) [Peptide No. 246]
26 | 0.23 | 1.4 | – | QRFXTGHFGXLYPCNGP (Pen4; D-Pro10; disulfide; C-terminal amide) [Peptide No. 40]
27 | 0.83 | 8.1 | 8.8 | QRF[Pen]TGHFG[dR]LYPCNGP-NH2 (disulfide 4-14; N-terminus assumed; SMILES CC(C)C[C@@H]1NC(=O)[C@@H](CCCNC(=N)N)NC(=O)CNC(=O)[C@H](Cc2ccccc2)NC(=O)[C@H](Cc2c[nH]cn2)NC(=O)CNC(=O)[C@H]([C@@H](C)O)NC(=O)[C@@H](NC(=O)[C@H](Cc2ccccc2)NC(=O)[C@H](CCCNC(=N)N)NC(=O)[C@@H](N)CCC(N)=O)C(C)(C)SSC[C@@H](C(=O)N[C@@H](CC(N)=O)C(=O)NCC(=O)N2CCC[C@H]2C(N)=O)NC(=O)[C@@H]2CCCN2C(=O)[C@H](Cc2ccc(O)cc2)NC1=O) [Peptide No. 41]
